Laboratory results: article doi:10.1101/2024.03.25.586624

Assays:
[1] = molecular target: synthetic sfGFP peptide, peptide variant 14; test: AlphaScreen or HTRF
[2] = molecular target: synthetic sfGFP peptide, peptide variant 9; test: AlphaScreen or HTRF

fold of the AlphaLISA signal of the wild-type TbtA leader sequence [1]: 2 fold
AlphaLISA signal, percent of the wild-type TbtA leader sequence [2]: 25%
Substance: MBP-TbtF RRE domain (domain or fragment)
